From publication PMC8766848, “The Structural Basis of Babesia orientalis Lactate Dehydrogenase” (Frontiers in Cellular and Infection Microbiology, 2022) come the findings set out here.

For series [1], the system named is T1, CC(=O)c1ccc[n+]([C@@H]2O[C@H](COP(=O)([O-])OP(=O)(O)OC[C@H]3O[C@@H](n4cnc5c(N)ncnc54)[C@H](O)[C@@H]3O)[C@@H](O)[C@H]2O)c1.
T1 construct: recombinant rBmLDH
In words: enzyme kinetics (Km), lactate to pyruvate, comparison enzyme. It is filed as biochemical, Babesia microti. The settings on record: varied: cofactor.

In series [2] the target is recombinant Babesia orientalis lactate dehydrogenase (Babesia orientalis). In words: native gel or EMSA; 8% blue native-PAGE of purified rBoLDH, without sodium dodecyl sulfate; ~160 kDa band. A general note: Mobility shift assays separate free from complexed probe on a gel.
The target is the same in series [3]. The series can be described thus: crystal structure; apo rBoLDH, hanging drop vapour diffusion at 20°C, 1 M lithium chloride, 0.1 M sodium acetate, 25-30% PEG 6000; space group P1, 2.67 Å.

Turning to “Babesia microti lactate dehydrogenase (BmLDH) (Babesia microti strain RI)”, the Km – broadly, the concentration of substrate that gives half-maximal velocity – in series [1] turned out to be 880 ± 120 µM.
Consider “recombinant Babesia orientalis lactate dehydrogenase (enzyme)”, for which the stoichiometry N in series [2] and in series [3] was 4 each time.
